Source: patent publication US20130203661A1 (AEGERION PHARMACEUTICALS, published 2013)

T1: chimeric Leptin (Hu)-EPO (Mu) receptor presented by the 32D OBECA cell line (human; murine, UniProt P48357 22-839; P14753 250-507)
T1 construct: Chimera of human leptin receptor and murine EPO receptor on 32D OBECA / 32D-Keptin cells; 273(29): 18365-18373; also called chimeric Hu-Leptin/Mu-EPO receptor
T1 sequence (looked up): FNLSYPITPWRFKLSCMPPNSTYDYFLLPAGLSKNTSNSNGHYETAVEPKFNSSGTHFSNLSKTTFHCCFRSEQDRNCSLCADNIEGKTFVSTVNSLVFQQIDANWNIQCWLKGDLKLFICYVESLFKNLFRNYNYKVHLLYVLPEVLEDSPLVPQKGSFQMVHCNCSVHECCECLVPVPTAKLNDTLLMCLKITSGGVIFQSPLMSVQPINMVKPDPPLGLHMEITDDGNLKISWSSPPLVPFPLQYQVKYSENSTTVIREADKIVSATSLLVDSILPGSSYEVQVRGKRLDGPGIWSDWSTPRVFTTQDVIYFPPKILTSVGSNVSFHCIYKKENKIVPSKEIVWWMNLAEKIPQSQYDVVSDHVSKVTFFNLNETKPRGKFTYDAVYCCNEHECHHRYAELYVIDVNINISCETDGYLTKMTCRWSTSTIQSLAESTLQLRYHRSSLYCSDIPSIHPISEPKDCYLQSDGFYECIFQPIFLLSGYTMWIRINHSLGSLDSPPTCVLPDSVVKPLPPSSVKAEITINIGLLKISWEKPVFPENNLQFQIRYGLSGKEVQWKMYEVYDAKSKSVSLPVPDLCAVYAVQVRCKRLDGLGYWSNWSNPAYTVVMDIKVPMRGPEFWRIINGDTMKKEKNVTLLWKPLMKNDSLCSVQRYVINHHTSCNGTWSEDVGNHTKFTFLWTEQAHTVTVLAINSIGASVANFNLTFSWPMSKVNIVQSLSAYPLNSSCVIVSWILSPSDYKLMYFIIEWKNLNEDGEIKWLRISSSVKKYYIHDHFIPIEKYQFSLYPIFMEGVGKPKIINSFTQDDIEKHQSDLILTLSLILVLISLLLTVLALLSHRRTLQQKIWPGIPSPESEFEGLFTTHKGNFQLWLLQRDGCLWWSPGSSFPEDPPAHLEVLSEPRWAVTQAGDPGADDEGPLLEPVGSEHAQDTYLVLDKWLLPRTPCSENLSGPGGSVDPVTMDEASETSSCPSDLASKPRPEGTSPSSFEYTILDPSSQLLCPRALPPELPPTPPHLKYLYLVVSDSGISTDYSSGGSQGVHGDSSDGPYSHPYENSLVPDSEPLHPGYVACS


How the values were obtained:
[1] = target: T1, chimeric Leptin (Hu)-EPO (Mu) receptor …; experiment: Obeca cell binding: displacement of 125I-murine leptin from 32D OBECA cell membranes
[2] = target: T1, chimeric Leptin (Hu)-EPO (Mu) receptor …; experiment: cell-based or functional assay

| Binder | IC50 [1] [pM] | EC50 (Obeca Stat 5 functional assay) [2] [pM] |
| --- | --- | --- |
| Seal leptin with N-terminal methionine, with amino acids 23-49 replaced with amino acids 25-51 (AB loop) of metreleptin, with amino acids 93-119 replaced with … (ligand) MPIQRVQDDTKTLIKTIITRINDISHTQSVSSKQKVTGLDFIPGLHPILTLSGMDQILATYQQILTSLQSRNVIQISNDLENLRDLLHVLAFSKSCHLPWASGLETLDSLGGVLEASGYSTEVVALSRLKAALQDMLRQLDRNPGC |  | 44 |
| Seal leptin with N-terminal methionine, and with amino acids 3-22 replaced with amino acids 5-24 (helix 1) of metreleptin (ligand) MPIQKVQDDTKTLIKTIVTRINDISPPQGVCSRPRVAGLDFIPRVQSVRTLSGMDQILATYQQILTSLQSRSVVQIANDLANLRALLRLLASAKSCPVPRARGSDTIKGLGNVLRASVHSTEVVALSRLKAALQDMLRQLDRNPGC |  | 95 |
| Seal leptin with N-terminal methionine, and with amino acids 120-141 replaced with amino acids 122-143 (helix 4) of metreleptin (ligand, Seal-human chimeric leptin; also called Compound 44) MPIQRVQDDTKTLIKTIITRINDISPPQGVCSRPRVAGLDFIPRVQSVRTLSGMDQILATYQQILTSLQSRSVVQIANDLANLRALLRLLASAKSCPVPRARGSDTIKGLGNVLRASVHSTEVVALSRLQGSLQDMLWQLDLNPGC | 3540 | 32 |
| Seal leptin with N-terminal methionine, and with amino acids 71-92 replaced with amino acids 73-94 (helix 3) of metreleptin (ligand, Seal-human chimeric leptin; also called Compound 41; Cmpd 41) MPIQRVQDDTKTLIKTIITRINDISPPQGVCSRPRVAGLDFIPRVQSVRTLSGMDQILATYQQILTSLQSRNVIQISNDLENLRDLLHVLAFSKSCPVPRARGSDTIKGLGNVLRASVHSTEVVALSRLKAALQDMLRQLDRNPGC | 555 | 28 |
| Seal leptin with N-terminal methionine, and with amino acids 50-65 replaced with amino acids 52-67 (helix 2) of metreleptin (ligand, Seal-human chimeric leptin; also called Compound 43) MPIQRVQDDTKTLIKTIITRINDISPPQGVCSRPRVAGLDFIPRVQSVRTLSKMDQTLAVYQQILTSLQSRSVVQIANDLANLRALLRLLASAKSCPVPRARGSDTIKGLGNVLRASVHSTEVVALSRLKAALQDMLRQLDRNPGC | 3080 | 54 |
| Seal leptin with N-terminal methionine, and with amino acids 93-119 replaced with amino acids 95-121 (loop 3-4) of metreleptin (ligand, Seal-human chimeric leptin; also called Compound 42; Cmpd 42) MPIQRVQDDTKTLIKTIITRINDISPPQGVCSRPRVAGLDFIPRVQSVRTLSGMDQILATYQQILTSLQSRSVVQIANDLANLRALLRLLASAKSCHLPWASGLETLDSLGGVLEASGYSTEVVALSRLKAALQDMLRQLDRNPGC | 2020 | 43 |
| Seal leptin with N-terminal methionine, and with amino acids 23-49 replaced with amino acids 25-51 (AB loop) of metreleptin (ligand, Seal-human chimeric leptin; also called Compound 46) MPIQRVQDDTKTLIKTIITRINDISHTQSVSSKQKVTGLDFIPGLHPILTLSGMDQILATYQQILTSLQSRSVVQIANDLANLRALLRLLASAKSCPVPRARGSDTIKGLGNVLRASVHSTEVVALSRLKAALQDMLRQLDRNPGC | 479 | 42 |

Second part, the binder after the results:

| IC50 [1] [pM] | EC50 (Obeca Stat 5 functional assay) [2] [pM] | Binder |
| --- | --- | --- |
| 788 | 62.5 | Seal leptin with N-terminal methionine, with amino acids 23-49 replaced with amino acids 25-51 (AB loop) of metreleptin, and with amino acids 93-119 replaced … (ligand, Seal-human chimeric leptin; also called Compound 47) MPIQRVQDDTKTLIKTIITRINDISHTQSVSSKQKVTGLDFIPGLHPILTLSGMDQILATYQQILTSLQSRSVVQIANDLANLRALLRLLASAKSCHLPWASGLETLDSLGGVLEASGYSTEVVALSRLKAALQDMLRQLDRNPGC |
| 2000 | 19 | Seal leptin (ligand, also called Compound 38; Cmpd 38) PIQRVQDDTKTLIKTIITRINDISPPQGVCSRPRVAGLDFIPRVQSVRTLSGMDQILATYQQILTSLQSRSVVQIANDLANLRALLRLLASAKSCPVPRARGSDTIKGLGNVLRASVHSTEVVALSRLKAALQDMLRQLDRNPGC |
| 36 | 39 | Seal leptin with N-terminal methionine, and with amino acids 30 and 71-92 replaced with amino acids 32 and 73-94 (helix 3) of metreleptin (ligand, Seal-human chimeric leptin; also called Compound 48; Cmpd 48) MPIQRVQDDTKTLIKTIITRINDISPPQGVSSRPRVAGLDFIPRVQSVRTLSGMDQILATYQQILTSLQSRNVIQISNDLENLRDLLHVLAFSKSCPVPRARGSDTIKGLGNVLRASVHSTEVVALSRLKAALQDMLRQLDRNPGC |
| 527 | 29 | Seal leptin with N-terminal methionine, and with amino acids 3-22 replaced with amino acids 5-24 (helix 1) of metreleptin, and amino acids 72-93 replaced with … (ligand, Seal-human chimeric leptin; also called Compound 45) MPIQKVQDDTKTLIKTIVTRINDISPPQGVCSRPRVAGLDFIPRVQSVRTLSGMDQILATYQQILTSLQSRNVIQISNDLENLRDLLHVLAFSKSCPVPRARGSDTIKGLGNVLRASVHSTEVVALSRLKAALQDMLRQLDRNPGC |
| 105 | 34 | Seal leptin with N-terminal methionine, and with amino acids 30 and 93-119 replaced with amino acids 32 and 95-121 (loop 3-4) of metreleptin (ligand, Seal-human chimeric leptin; also called Compound 49; Cmpd 49) MPIQRVQDDTKTLIKTIITRINDISPPQGVSSRPRVAGLDFIPRVQSVRTLSGMDQILATYQQILTSLQSRSVVQIANDLANLRALLRLLASAKSCHLPWASGLETLDSLGGVLEASGYSTEVVALSRLKAALQDMLRQLDRNPGC |
| 214 | 22 | Seal leptin with N-terminal methionine, with amino acids 71-92 replaced with amino acids 73-94 (helix 3) of metreleptin, and with amino acids 93-119 replaced … (ligand, Seal-human chimeric leptin; also called Compound 50) MPIQRVQDDTKTLIKTIITRINDISPPQGVCSRPRVAGLDFIPRVQSVRTLSGMDQILATYQQILTSLQSRNVIQISNDLENLRDLLHVLAFSKSCHLPWASGLETLDSLGGVLEASGYSTEVVALSRLKAALQDMLRQLDRNPGC |
| 119 | 38 | Seal leptin with N-terminal methionine, and with amino acids 71-92 replaced with amino acids 73-94 (helix 3) of metreleptin, and with amino acids 23-49 … (ligand, Seal-human chimeric leptin; also called Compound 51) MPIQRVQDDTKTLIKTIITRINDISHTQSVSSKQKVTGLDFIPGLHPILTLSGMDQILATYQQILTSLQSRNVIQISNDLENLRDLLHVLAFSKSCPVPRARGSDTIKGLGNVLRASVHSTEVVALSRLKAALQDMLRQLDRNPGC |
| 2410 | 588 | Seal leptin with N-terminal methionine, with amino acids 23-49 replaced with amino acids 25-51 (AB loop) of metreleptin, and with amino acids 120-141 replaced … (ligand, Seal-human chimeric leptin; also called Compound 40) MPIQRVQDDTKTLIKTIITRINDISHTQSVSSKQKVTGLDFIPGLHPILTLSGMDQILATYQQILTSLQSRSVVQIANDLANLRALLRLLASAKSCPVPRARGSDTIKGLGNVLRASVHSTEVVALSRLQGSLQDMLWQLDLNPGC |
